# Results from US20200148774A1 (Genentech, published 2020).
# Substitutions are numbered along the chain they refer to.
# T1: human CLL-1 on cells (endogenous on HL-60, EOL-1 and other AML cell lines and CD14+ monocytes); recombinant on … (human, UniProt Q5QGZ9 1-265)
# T1 sequence: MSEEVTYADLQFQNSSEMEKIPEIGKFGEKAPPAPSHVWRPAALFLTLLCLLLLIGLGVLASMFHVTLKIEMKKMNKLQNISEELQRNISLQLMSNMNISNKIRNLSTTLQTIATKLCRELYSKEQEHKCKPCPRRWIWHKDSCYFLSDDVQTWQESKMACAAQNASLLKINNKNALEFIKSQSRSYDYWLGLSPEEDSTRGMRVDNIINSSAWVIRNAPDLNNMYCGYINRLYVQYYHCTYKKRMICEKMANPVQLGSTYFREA
# T2: recombinant human CLL-1 extracellular domain (ECD, amino acids 65-265) fused to an N-terminal Flag (human, UniProt Q5QGZ9 65-265)
# T2 construct: The construct and the K244Q SNP are stated for the immunogen; they are not written as a piece; also called huCLL-1-Flag; huCLL-1
# T2 chain: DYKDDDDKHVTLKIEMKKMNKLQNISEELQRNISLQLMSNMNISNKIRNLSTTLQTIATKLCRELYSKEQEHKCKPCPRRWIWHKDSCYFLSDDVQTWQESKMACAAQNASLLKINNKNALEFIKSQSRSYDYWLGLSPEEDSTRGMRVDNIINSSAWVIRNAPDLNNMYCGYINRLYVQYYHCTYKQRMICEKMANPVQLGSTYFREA
# T3: recombinant cynomolgus CLL-1 extracellular domain (ECD, amino acids 65-265) fused to an N-terminal Flag (cynomolgus monkey)
# T3 construct: Construct stated for the immunogen; also called CynoCLL-1 Flag; cynoCLL-1
# T3 chain: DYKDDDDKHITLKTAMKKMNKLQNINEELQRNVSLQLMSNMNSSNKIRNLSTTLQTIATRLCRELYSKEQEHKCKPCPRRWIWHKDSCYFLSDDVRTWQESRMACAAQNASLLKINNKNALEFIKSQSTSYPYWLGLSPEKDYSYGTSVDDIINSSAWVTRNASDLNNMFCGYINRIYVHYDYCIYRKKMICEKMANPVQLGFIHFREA
# B1: 38E4v1 Fab (Fab, V domains shown)
# VH: EVQLVQSGAEVKKPGASVKVSCKASGFTFTSYYIHWVRQAPGQGLEWIGWIYPENDNTKYNEKFKDRVTITADTSTSTAYLELSSLRSEDTAVYYCARDGYSRYYFDYWGQGTLVTVSS
# VL: DIVMTQSPDSLAVSLGERATINCKSSQSLLNSRTRKNYLAWYQQKPGQSPKLLIYWTSTRKSGVPDRFSGSGSGTDFTLTISSLQAEDVAVYYCKQSFILRTFGQGTKVEIK
# notes: Fab; also called 38E4v1 (Fab Biacore measurements)
# B2: h21C9 (h21C9.L2H3)×38E4v1 TDB (bispecific antibody, V domains shown)
# VH 1: EVQLVQSGAEVKKPGASVKVSCKASGYTFTDYYLDWVRQAPGQGLEWIGRVNPYNGGTIYNQKFKGRVTLTRDTSTSTAYLELSSLRSEDTAVYYCARDHYRYDPLLDYWGQGTLVTVSS
# VL 1: DIQMTQSPSSLSASVGDRVTITCKASQDVSTAVAWFQQKPGKAPKLLIYSPSYRYTGVPSRFSGSGSGTDFTLTISSLQPEDFATYYCQQLYSTPYTFGQGTKVEIK
# VH 2: B1 VH
# VL 2: B1 VL
# B3: 6E7.L4H1eA54×38E4v1 TDB (bispecific antibody, V domains shown)
# VH 1: EVQLVQSGAEVKKPGASVKVSCKASGYSFTDYYMHWVRQAPGQGLEWIGRINPYAGAAFYSQNFKDRVTLTVDTSTSTAYLELSSLRSEDTAVYYCAIERGADLEGYAMDYWGQGTLVTVSS
# VL 1: DIQMTQSPSSLSASVGDRVTITCRASQSVSTSSYNYMHWYQQKPGKPPKLLIKYASNLESGVPSRFSGSGSGTDFTLTISSLQPEDFATYYCQHSWEIPLTFGQGTKVEIK
# VH 2: B1 VH
# VL 2: B1 VL
# B4: 28H12×38E4v1 TDB (bispecific antibody, human IgG1, V domains shown)
# VH 1: QVQLQQSGAELVKPGASVKLSCTASGFNIKDTYMHWVKQRPEQGLEWIGRIDPANGDTDYDPKFQGKATVTADTSSNTAYLQLSSLTSEDTAVYYCTISGPPYYVMDYWGQGTSVTVSS
# VL 1: DIQMTQSPASLAVSLGQRATISCRASQSVSSSSYSYMHWYQQKPGQPPKLLIKYASNLESGVPARFSGRGSGTDFTLNIHPVEEEDTATYYCQHSWEIPYTFGGGTRLEIK
# VH 2: B1 VH
# VL 2: B1 VL
# B5: 20B1×38E4v1 TDB (bispecific antibody, human IgG1, V domains shown)
# VH 1: EVQLQQSGPELVKPGALVKISCKASGYTFTSYDINWLKQRPGQGLEWIGWIYPGDGTTEYNERFKGKATLTADKSSSTAYLQLSSLTSENSAVYFCARSYDYDYAMDYWGQGTSVTVSS
# VL 1: DIVLTQSPAIMSASPGEKVTMTCSASSSISYMYWYQQKPGTSPKRWIYDTSKLASGVPARFSGSGSGTSYSLTISSMEAEDAATYYCHQRSSWTFGGGTKLEIK
# VH 2: B1 VH
# VL 2: B1 VL
# B6: 21C9.L2H3E54 (antibody, V domains shown)
# VH: B2 VH 1 with N55E
# VL: B2 VL 1
# B7: 21C9.L2H3S54 (antibody, V domains shown)
# VH: B2 VH 1 with N55S
# VL: B2 VL 1
# B8: 21C9.L2H3A54 (antibody, V domains shown)
# VH: B2 VH 1 with N55A
# VL: B2 VL 1
# B9: 6E7.L4H1eE54 (antibody, V domains shown)
# VH: B3 VH 1 with A55E
# VL: B3 VL 1
# notes: IgG
# B10: 6E7.L4H1eS54 (antibody, V domains shown)
# VH: B3 VH 1 with A55S
# VL: B3 VL 1
# notes: IgG
# B11: 21C9.L2H3D54 (antibody, V domains shown)
# VH: B2 VH 1 with N55D
# VL: B2 VL 1
# B12: humanized 21C9 variant CDRs graft+(F36 and S43(LC))+L69 (HC) (antibody, V domains shown)
# VH: B2 VH 1
# VL: B2 VL 1 with A43S
# B13: humanized 6E7 variant CDRs graft+K49(LC)+(A67, L69, V71, K73 (HC)) (antibody, V domains shown)
# VH: B3 VH 1 with A55N, V68A, T74K
# VL: B3 VL 1
# Target: T4, hCD3ε (human, UniProt P07766 23-126)
# T4 construct: Also used for the value printed only as 'hCD3 (0.05 nM'); also called human CD3ε polypeptide
# Assay: SPR (Biacore), Fab
# T4 sequence (P07766 23-126): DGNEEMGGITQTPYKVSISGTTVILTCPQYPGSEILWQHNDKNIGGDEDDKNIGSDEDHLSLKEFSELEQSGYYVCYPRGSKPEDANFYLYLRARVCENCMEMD
Kd,koff,kon,Binder
0.389 nM,0.00317 s⁻¹,8.15e+06 M⁻¹ s⁻¹,B1

# Target: T1, human CLL-1 on cells (endogenous on …)
# Assay: cell-based or functional assay
row,Binder,EC50 of killing of EOL-1 (other donors)
1,B2,0.0163 µg/mL

# Target: T1, human CLL-1 on cells (endogenous on …)
# Assay: cell-based or functional assay
# Remark: another data set of the same source
row,Binder,"Cell killing EC50 (EOL-1 cells, human CD8+ T cells)"
1,B3,0.034 µg/mL
2,B4,> 1 µg/mL
3,B5,0.531 µg/mL

# Target: T1, human CLL-1 on cells (endogenous on …)
# Assay: cell-based or functional assay
# Remark: another data set of the same source
Binder,"average killing EC50, EOL-1","average killing EC50, HL-60","average killing EC50, human autologous CD14+"
B2,0.0511 µg/mL,1.76 µg/mL,14.8 ng/ml

# Target: T2, recombinant human CLL-1 extracellular …
# Assay: SPR (Biacore T200), IgG captured by anti-human Fc, CLL-1 as analyte
Kd,koff,kon,Binder
862 nM,0.0882 s⁻¹,102000 M⁻¹ s⁻¹,B6
286 nM,0.0405 s⁻¹,142000 M⁻¹ s⁻¹,B7
622 nM,0.0692 s⁻¹,111000 M⁻¹ s⁻¹,B8
5.09 nM,0.00248 s⁻¹,488000 M⁻¹ s⁻¹,B9
14.1 nM,0.0072 s⁻¹,510000 M⁻¹ s⁻¹,B10

# Target: T3, recombinant cynomolgus CLL-1 …
# Assay: as above
Kd,koff,kon,Binder
49600 nM,0.0371 s⁻¹,748 M⁻¹ s⁻¹,B6
5670 nM,0.0207 s⁻¹,3660 M⁻¹ s⁻¹,B7
48200 nM,0.0215 s⁻¹,445 M⁻¹ s⁻¹,B8
217 nM,0.00885 s⁻¹,40700 M⁻¹ s⁻¹,B11
4.26 nM,0.00283 s⁻¹,664000 M⁻¹ s⁻¹,B9
6.37 nM,0.00327 s⁻¹,513000 M⁻¹ s⁻¹,B10

# Target: T2, recombinant human CLL-1 extracellular …
# Assay: SPR (Biacore T200), IgG captured by anti-human Fc, human CLL-1 as analyte
# Procedure: The binding affinity of the antibodies in this section was determined by BIAcore™ T200 Format. Briefly, BIAcore™ research grade CM5 chips were activated with 1-ethyl-3-(3-dimethylaminopropyl) carbodiimide (EDC) and N-hydroxysuccinimide (NHS) reagents according to the supplier's instructions. Goat anti-human Fc IgGs were coupled to the chips to achieve approximately 10,000 response units (RU) in each flow cell. Unreacted coupling groups were blocked with 1M ethanolamine. For kinetics measurements, antibodies were captured to achieve approximately 300 RU. Three-fold serial dilutions of human CLL-1 was injected in HBS-P buffer (0.01M HEPES pH7.4, 0.15M NaCl, 0.005% surfactant P20) at 25° C. with a flow rate of 30 μl/min. Association rates (kon) and dissociation rates (koff) were calculated using a 1:1 Langmuir binding model (BIAcore™ T200 Evaluation Software version 2.0). The equilibrium dissociation constant (Kd) was calculated as the ratio koff/kon.
row,Kd,Binder
1,10.5 nM,B12
2,1.4 nM,B13
